Experimental findings from patent US20240174753A1 (ANWITA BIOSCIENCES, published 2024) are described below.

Positions count from the first letter of the chain named. Names and notes keep the numbering of the source.

One experiment deals with T1, CD122-Fc fusion protein (UniProt P14784 27-240, limits assumed).
T1 construct: also called IL-2Rβ; not shown: Fc part
T1 sequence (looked up): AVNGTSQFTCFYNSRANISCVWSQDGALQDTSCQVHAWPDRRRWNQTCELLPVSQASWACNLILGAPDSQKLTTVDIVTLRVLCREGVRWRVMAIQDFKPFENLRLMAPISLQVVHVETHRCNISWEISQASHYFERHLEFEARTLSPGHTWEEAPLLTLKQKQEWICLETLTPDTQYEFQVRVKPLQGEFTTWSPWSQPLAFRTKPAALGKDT
The experiment in a line: BLI (Octet RED96); CD122-Fc on AHC biosensor, IL-2 mutein at 400 nM. Details: unit not given here. The text has this:
(§1) Briefly, an CD25- or CD122-Fc fusion protein was loaded onto an anti-human IgG Fc capture (AHC) biosensor.

The target in the next experiment is T2, CD25-Fc fusion protein (UniProt P01589 22-213, limits assumed).
T2 construct: also called IL-2Rα; not shown: Fc part
T2 sequence (looked up): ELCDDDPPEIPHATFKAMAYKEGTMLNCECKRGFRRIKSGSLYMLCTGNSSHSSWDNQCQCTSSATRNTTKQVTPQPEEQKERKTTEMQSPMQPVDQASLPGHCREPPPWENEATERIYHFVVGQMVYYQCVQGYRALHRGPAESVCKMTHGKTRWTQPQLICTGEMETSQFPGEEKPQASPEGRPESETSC
The experiment is described as follows: BLI (Octet RED96); CD25-Fc on AHC biosensor, IL-2 mutein at 400 nM. Details: unit not given here.
Text: as §1

B1: hIL-2 Mutein (K32E, F42C, V69C, C125S) (ligand)
chain: APTSSSTKKTQLQLEHLLLDLQMILNGINNYENPKLTRMLTCKFYMPKKATELKHLQCLEEELKPLEECLNLAQSKNFHLRPRDLISNINVIVLELKGSETTFMCEYADETATIVEFLNRWITFSQSIISTLT
notes: The description says F42C and V69C form a disulfide bond; Column headed 'Fusion Protein'; no fusion partner is stated for the assay
As for B1, the results for the “Binding Response” value in the experiment with CD122-Fc fusion protein and with CD25-Fc fusion protein were > 0.5 and < 0.05, respectively.

B2: hIL-2 Mutein (R38N, L40T, C125S) (ligand)
chain: B1 chain with E32K, R38N, L40T, C42F, C69V
notes: Column headed 'Fusion Protein'; no fusion partner is stated for the assay
B2: the “Binding Response” value in the experiment with CD122-Fc fusion protein was > 0.5; with CD25-Fc fusion protein, < 0.05.

B3: hIL-2 Mutein (K32E, R38E, F42K, C125S) (ligand)
chain: B1 chain with R38E, C42K, C69V
notes: as for B2
Regarding B3, the figures for the “Binding Response” value in the experiment with CD122-Fc fusion protein and with CD25-Fc fusion protein were > 0.5 and < 0.05, respectively.

B4: IL-2-IL-15 Chimera 1 (C125S) (ligand)
chain: APTSSSTKKTQLQLEHLLLDLQMILNGIQSMEIDATTFKFYMPKKATELKHLQCLEEELKPLEEVLNLAQSKNFHLRPRDLISNINVIVLELKGSETTFMCEYADETATIVEFLNRWITFSQSIISTLT
notes: as for B2
For the molecule B4, the figures for the “Binding Response” value with CD122-Fc fusion protein and in the experiment with CD25-Fc fusion protein were > 0.5 and < 0.05, respectively.

B5: IL-2-IL-15 Chimera 29 (I92A, C125S) (ligand)
chain: B4 chain with I88A
notes: as for B2
Consider B5, for which the entries for the “Binding Response” value with CD122-Fc fusion protein and in the experiment with CD25-Fc fusion protein were < 0.1 and < 0.05, respectively.

B6: IL-2-IL-15 Chimera 23 (D20E, C125S) (ligand)
chain: B4 chain with D20E
notes: as for B2
Turning to B6, the “Binding Response” value with CD122-Fc fusion protein is < 0.1; with CD25-Fc fusion protein, < 0.05.

B7: IL-2-IL-15 Chimera 21 (D20A, C125S) (ligand)
chain: B4 chain with D20A
notes: as for B2
Consider B7, for which the “Binding Response” value with CD122-Fc fusion protein was < 0.1; with CD25-Fc fusion protein, < 0.05.

B8: IL-2-IL-15 Chimera 27 (N88A, C125S) (ligand)
chain: B4 chain with N84A
notes: as for B2
As to B8, the “Binding Response” value in the experiment with CD122-Fc fusion protein was < 0.1; with CD25-Fc fusion protein it was < 0.05.

B9: IL-2-IL-15 Chimera 19 (D20T, C125S) (ligand)
chain: B4 chain with D20T
notes: as for B2
On to B9, for which the results for the “Binding Response” value with CD122-Fc fusion protein and with CD25-Fc fusion protein were < 0.1 and < 0.05, respectively.

B10: IL-2-IL-15 Chimera 25 (D20K, C125S) (ligand)
chain: B4 chain with D20K
notes: as for B2
For the molecule B10, the entries for the “Binding Response” value with CD122-Fc fusion protein and with CD25-Fc fusion protein were < 0.1 and < 0.05, respectively.

B11: IL-2-IL-15 Chimera 17 (H16V, C125S) (ligand)
chain: B4 chain with H16V
notes: as for B2
Take B11: the “Binding Response” value with CD122-Fc fusion protein was < 0.1; in the experiment with CD25-Fc fusion protein, < 0.05.

B12: IL-2-IL-15 Chimera 33 (I92D, C125S) (ligand)
chain: B4 chain with I88D
notes: No fusion partner is stated for the assay; also called IL-2-IL-15 Chimera 29 (I92D, C125S)
Consider B12, for which the “Binding Response” value with CD122-Fc fusion protein is < 0.1; in the experiment with CD25-Fc fusion protein it was < 0.05.

B13: IL-2-IL-15 Chimera 5 (E15K, C125S) (ligand)
chain: B4 chain with E15K
notes: as for B2
Take B13: the “Binding Response” value in the experiment with CD122-Fc fusion protein was > 0.5; in the experiment with CD25-Fc fusion protein it was < 0.05.

B14: IL-2-IL-15 Chimera 31 (I92G, C125S) (ligand)
chain: B4 chain with I88G
notes: No fusion partner is stated for the assay; also called IL-2-IL-15 Chimera 29 (I92G, C125S)
B14: the “Binding Response” value is < 0.2 with CD122-Fc fusion protein and < 0.05 in the experiment with CD25-Fc fusion protein.

B15: IL-2-IL-15 Chimera 35 (I92E, C125S) (ligand)
chain: B4 chain with I88E
notes: No fusion partner is stated for the assay; also called IL-2-IL-15 Chimera 29 (I92E, C125S)
B15: the “Binding Response” value with CD122-Fc fusion protein was < 0.1; with CD25-Fc fusion protein, < 0.05.

B16: IL-2-IL-15 Chimera 15 (H16I, C125S) (ligand)
chain: B4 chain with H16I
notes: as for B2
Consider B16, for which the “Binding Response” value with CD122-Fc fusion protein was < 0.1; in the experiment with CD25-Fc fusion protein it was < 0.05.

B17: IL-2-IL-15 Chimera 11 (H16E, C125S) (ligand)
chain: B4 chain with H16E
notes: as for B2
Regarding B17, the “Binding Response” value was < 0.2 with CD122-Fc fusion protein and < 0.05 in the experiment with CD25-Fc fusion protein.
